Measured values as given in patent publication EP4803537A1 (PHRONTLINE BIOPHARMA (SUZHOU) CO., LTD, dated 2026).
Substitutions are numbered along the chain they refer to.

B1: Fab-Fc/Fab-Fc bispecific antibody (zalutumumab Fab x pertuzumab Fab), KIH combination (K0/H0) (bispecific antibody, human IgG1, kappa)
heavy 1: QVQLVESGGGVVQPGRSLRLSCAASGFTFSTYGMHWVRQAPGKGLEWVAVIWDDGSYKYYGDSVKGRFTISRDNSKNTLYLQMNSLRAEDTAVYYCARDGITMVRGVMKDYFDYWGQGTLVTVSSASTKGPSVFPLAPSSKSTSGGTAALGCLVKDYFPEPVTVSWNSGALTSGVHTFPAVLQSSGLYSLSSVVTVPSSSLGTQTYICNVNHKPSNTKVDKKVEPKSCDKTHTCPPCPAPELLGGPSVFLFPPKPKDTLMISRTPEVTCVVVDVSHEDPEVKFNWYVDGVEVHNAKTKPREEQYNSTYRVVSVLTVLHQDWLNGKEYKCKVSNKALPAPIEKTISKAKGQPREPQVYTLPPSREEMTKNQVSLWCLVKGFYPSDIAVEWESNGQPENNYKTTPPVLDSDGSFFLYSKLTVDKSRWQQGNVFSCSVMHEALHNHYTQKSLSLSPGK
light 1: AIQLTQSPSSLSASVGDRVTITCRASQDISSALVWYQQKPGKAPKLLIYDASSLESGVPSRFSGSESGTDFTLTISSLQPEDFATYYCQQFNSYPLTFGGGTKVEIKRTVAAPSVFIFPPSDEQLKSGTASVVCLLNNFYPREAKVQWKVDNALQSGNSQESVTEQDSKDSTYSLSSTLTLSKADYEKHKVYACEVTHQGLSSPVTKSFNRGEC
heavy 2: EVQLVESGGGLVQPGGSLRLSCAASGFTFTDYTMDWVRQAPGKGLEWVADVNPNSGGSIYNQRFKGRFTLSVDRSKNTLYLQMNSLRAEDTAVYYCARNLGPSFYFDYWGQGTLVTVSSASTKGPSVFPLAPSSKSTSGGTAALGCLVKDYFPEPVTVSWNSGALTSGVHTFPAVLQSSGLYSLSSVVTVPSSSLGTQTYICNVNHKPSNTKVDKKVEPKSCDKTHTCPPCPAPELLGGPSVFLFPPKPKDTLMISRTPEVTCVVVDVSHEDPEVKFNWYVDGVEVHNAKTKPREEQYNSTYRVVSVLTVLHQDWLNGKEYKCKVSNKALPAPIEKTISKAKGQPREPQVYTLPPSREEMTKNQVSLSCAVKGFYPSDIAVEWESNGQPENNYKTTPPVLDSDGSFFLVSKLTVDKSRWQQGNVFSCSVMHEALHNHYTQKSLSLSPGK
light 2: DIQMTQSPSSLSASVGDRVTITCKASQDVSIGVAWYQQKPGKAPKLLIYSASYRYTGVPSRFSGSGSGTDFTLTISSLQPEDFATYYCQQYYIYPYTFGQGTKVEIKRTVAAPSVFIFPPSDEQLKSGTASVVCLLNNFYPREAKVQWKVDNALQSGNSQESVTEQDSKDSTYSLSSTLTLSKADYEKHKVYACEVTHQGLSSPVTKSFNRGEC
notes: Human IgG1 Fc (hinge, CH2, CH3); the exact junction between VH-CH1 and Fc (EU 221-447) is not spelled out; also called KIH control
B2: Fab-Fc/Fab-Fc bispecific antibody (zalutumumab Fab x pertuzumab Fab), M1 mutant combination (K2/H2) (bispecific antibody, human IgG1, kappa)
heavy 1: not shown
light 1: not shown
heavy 2: EVQLVESGGGLVQPGGSLRLSCAASGFTFTDYTMDWVRQAPGKGLEWVADVNPNSGGSIYNQRFKGRFTLSVDRSKNTLYLQMNSLRAEDTAVYYCARNLGPSFYFDYWGQGTLVTVSSASTKGPSVFPLAPSSKSTSGGTAALGCLVKDYFPEPVTVSWNSGALTSGVHTFPAVLQSSGLYSLSSVVTVPSSSLGTQTYICNVNHKPSNTKVDKKVEPKSCDKTHTCPPCPAPELLGGPSVFLFPPKPKDTLMISRTPEVTCVVVDVSHEDPEVKFNWYVDGVEVHNAKTKPREEQYNSTYRVVSVLTVLHQDWLNGKEYKCKVSNKALPAPIEKTISKAKGQPREPQVYTLPPSREEMTKNQVSLSCAVKGFYPSDIAVEWESNGQPENNYKTTPPVLRSDGSFFLVSKLTVDKSRWQQGNVFSCSVMHEALHNHYTQKSLSLSPGK
light 2: not shown
notes: Human IgG1 Fc; Junction between VH-CH1 and Fc not spelled out; no linker named for this format
B3: Fab-Fc/Fab-Fc bispecific antibody (zalutumumab Fab x pertuzumab Fab), M3 mutant combination (K2/H7) (bispecific antibody, human IgG1, kappa)
heavy 1: not shown
light 1: not shown
heavy 2: B2 heavy 2 with L353Y
light 2: not shown
notes: as for B2
B4: Fab-Fc/Fab-Fc bispecific antibody (zalutumumab Fab x pertuzumab Fab), M2 mutant combination (K0/H8) (bispecific antibody, human IgG1, kappa)
heavy 1: not shown
light 1: not shown
heavy 2: B2 heavy 2 with L353Y, R401D
light 2: not shown
notes: as for B2

target: T1, Recombinant human EGFR protein (ACRO Biosystems, EGR-H5222) (human, UniProt P00533 25-645); assay: ELISA, EGFR coated on the plate
T1 construct: Bought protein

binding result | Binder
binds | B1
binds | B2
binds | B3
binds | B4

target: T2, recombinant human FcγRI protein (ACRO Biosystems, Cat. FCA-H52H1) (human, UniProt P12314 16-288, limits assumed); assay: BLI (Octet Red 96), FcγRI on HIS1K sensors
T2 construct: Captured on anti-His (HIS1K) biosensors, so it carries a His tag; also called FcγRI receptor
T2 sequence (P12314 16-288 limits assumed): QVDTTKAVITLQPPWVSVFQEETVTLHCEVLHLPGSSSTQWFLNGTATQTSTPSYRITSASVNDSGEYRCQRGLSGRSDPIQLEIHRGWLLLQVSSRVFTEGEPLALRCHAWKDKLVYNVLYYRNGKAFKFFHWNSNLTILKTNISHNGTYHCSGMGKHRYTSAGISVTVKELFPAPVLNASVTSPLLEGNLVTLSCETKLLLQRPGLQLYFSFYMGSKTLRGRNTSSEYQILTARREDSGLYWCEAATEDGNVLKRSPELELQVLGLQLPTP

binding result | Binder
binds | B1
binds | B2
binds | B3
binds | B4
